Patent publication US20230071609A1 (Genentech, published 2023)

T1: endogenous APOL2 in human podocytes (human, UniProt Q9BQE5 1-337)
T1 construct: In podocyte lysates (western blot) or fixed, permeabilized podocytes; also called 36 kDa APOL2 band
T1 sequence (looked up): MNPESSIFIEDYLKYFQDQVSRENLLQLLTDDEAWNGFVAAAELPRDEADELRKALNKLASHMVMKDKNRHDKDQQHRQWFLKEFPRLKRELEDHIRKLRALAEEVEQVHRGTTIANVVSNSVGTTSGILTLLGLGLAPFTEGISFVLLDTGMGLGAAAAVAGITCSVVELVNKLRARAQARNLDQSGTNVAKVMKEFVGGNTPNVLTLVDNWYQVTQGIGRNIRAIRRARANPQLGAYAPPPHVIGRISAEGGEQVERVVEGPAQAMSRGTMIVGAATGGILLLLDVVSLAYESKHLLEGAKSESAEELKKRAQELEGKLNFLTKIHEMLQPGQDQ

T2: gD-MAD-SRA-ID-GPI (construct d) (human, UniProt O14791 238-398, C-terminal GPI anchor)
T2 sequence: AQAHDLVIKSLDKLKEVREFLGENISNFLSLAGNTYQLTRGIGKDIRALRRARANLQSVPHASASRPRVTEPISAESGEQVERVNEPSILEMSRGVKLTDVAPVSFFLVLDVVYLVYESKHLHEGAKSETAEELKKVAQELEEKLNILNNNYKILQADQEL

B1: antibody 3.6D12 (antibody, V domains shown)
VH: EVMLVESGGGLVRPGGSLKLSCTASGFTFSRCAMSWVRQTPEKRLEWVSAISRDSTYTYYSDSVKGRFTVSRDNAKNTLYLQMSSLRSEDTAMYYCARQIDDYYVDALDYWGQGTSVTVSS
VL: DVQITQSPSYLAASPGETITINCRASKIISKYLAWYQEKPGKTIKLLIYSGFTLQSGIPSRFSGSGSGTDFTLTISSLEPEDFAMYYCQQHNEYPLTFGAGTKLEIKR
notes: Mouse mAb (Method #3), cloned as murine IgG2a LALAPG; Early screens used hybridoma-purified antibody; also called mAb 3.6D12
B2: antibody 3.7D6 (antibody, V domains shown)
VH: QIQLVQSGPDLKKPGETVKISCRTSGYAFTNYGVNWVKQAPGKGLKWMGWINTNTGQTTYAEEFRGRFAISLETSASTAFLTISNLKNEDSATYFCARLIYDGDYISSDFWGQGTTLTVSS
VL: DIQMTQSPDSLSASVGETVTITCGASENIYGALNWYQRKQGKSPQLLIYGATNLADGMSSRFSGSRSGRQYSLKISSLHPDDVATYYCQNALSMPYTFGGGTKLEIKR
notes: Mouse mAb, cloned as murine IgG2a LALAPG; those versions are not written separately; also called PFD antibody 3.7D6

Key:
[1] = target: T1, endogenous APOL2 in human podocytes; test: western blot of WT and APOL1 KO podocyte lysates
Experimental: The results corroborate the IF cross-reactivities, except for APOL4 cross-reactivity, which appears to be conformationally sensitive. The 3.6D12 antibody continues to recognize APOL2 in the APOL1 KO podocytes (generated as described in Example 1). Note the 4.17A5 western is shown at a longer exposure than the others.
Following three TBST washes, anti-mouse (GE Healthcare NA931V, 1:3000) or anti-rabbit HRP (Jackson 711-036-152, 1:8000) was added as secondary antibody. After 1 h, membranes were washed and protein detected using ECL prime (Amersham RPN2232) exposed to MR film (Kodak). Anti-actin HRP-conjugated antibody (clone 13E5, Cell Signaling Technologies 5125S at 1:5000) or calnexin (Abcam Ab22595 at 1:1000) was used as a loading control. For peptide mapping, 2 μl of 1 mM peptides in DMSO were boiled in 5× sample buffer and loaded on 10% Tris-Glycine gel and run using MES buffer. Cell pellets of Sf9 lysates were lysed in native RIPA (NP-40) lysis buffer and run on 10% Tris-Glycine gels.

[2] = target: T2, gD-MAD-SRA-ID-GPI (construct d); test: flow cytometry, live CHO cells; 3.7D6 is the representative PFD antibody
Experimental: Stably transfected live (not fixed or permeabilized) CHO cells expressing the gD-iAPOL1-GPI constructs indicated in FIGS. 1A-1E after induction with 5 μg/ml dox for 48 h, showing differential antibody binding at 5 μg/ml. […] White histograms are Alexa488 anti-mouse or anti-rabbit secondaries only; grey histograms are the anti-APOL1 signals. A representative histogram for each category is shown: 3.7D6 for PFD; 3.3A8 for C-terminus of MAD, 3.5H9 for N-terminus of MAD; 3.1C1 for SRA-ID; 3.2D4 for multi-domain; 3.3F7 for conformational and 3.5B10 for FACS-negative (FACS-ve). The prefix 3 in the name of the antibodies denotes murine monoclonals from Method #3 (as shown in Example 1 below); other antibodies (not illustrated here) starting with the number 4 are murine monoclonals derived from mice additionally boosted with SRA-ID protein; and prefix 5-named antibodies are rabbit monoclonals from Method #5 (Table 2A; and Example 2). […] The Sigma polyclonal (HPA018885, raised to aa 263-387) and the Epitomics rabbit monoclonal (EPR2907(2), raised to an undisclosed peptide) are SRA-ID binders. […]
Cells were harvested with 5 mM EDTA in PBS, washed once with growth media and twice with PBS. […] Signals were read in a FACSCalibur3 (Becton Dickinson), with the exception of FIG. 8A and FIG. 14, which used a FACSCelesta, and data was analyzed using FlowJo v8.4.5.

binding result [1]	binding result [2]	Binder
binds		B1
	no binding (tested: 5 µg/ml)	B2
